What is called IC50 is the midpoint of a concentration-inhibition curve. Read a low IC50 as inhibition by little substance. One may read the Kd as the equilibrium constant for the complex coming apart. Low values mean tighter binding, high ones weaker binding.

Changes are numbered by the printed parent chain. Like-named read-outs stand apart in the source and are kept apart here.

The results in this text go back to US20110236390A1 (Janssen / Centocor, published 2011).

Test [1] deals with T1, cynomolgus IL-17A (cynomolgus, UniProt Q16552 24-155 (human entry), limits assumed).
T1 chain: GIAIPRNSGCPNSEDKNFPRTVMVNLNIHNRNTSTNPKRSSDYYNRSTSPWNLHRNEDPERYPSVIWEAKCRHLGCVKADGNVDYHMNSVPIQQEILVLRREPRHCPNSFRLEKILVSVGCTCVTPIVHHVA
The experiment in a line: cell-based or functional assay.

Test [2] deals with T1, cynomolgus IL-17A. In words: competition ELISA: mAb against biotinylated cyno IL-17A binding to coated IL-17RA-Fc. (In an ELISA, binding on a coated surface is turned into a signal by an enzyme label.)
Protocol: (§1) Clear maxisorp plates were coated with 100 μl/well of 2.5 μg/ml human IL-17RA-Fc (R&D Systems, Minneapolis, Minn.) in 0.1 M sodium carbonate-bicarbonate buffer, pH 9.4 and incubated overnight at 4° C. […] The signal was detected with 100 μl of 1:10,000 dilution of 1 mg/ml SA-HRP (Jackson Immunoresearch, West Grove, Pa.) for 20 minutes at room temperature (RT) followed by 100 μl/well of OPD substrate (Sigma-Aldrich Corp., St. Louis, Mo.).
Test [3] has as its target T1, cynomolgus IL-17A. Described as above.
Protocol: as §1
In test [4] the target is T1, cynomolgus IL-17A. The experiment in a line: SPR Biacore 3000, antibody captured, IL-17 in solution.
Protocol: Affinity measurements using Surface Plasmon Resonance (SPR) were performed using a Biacore 3000 optical biosensor (Biacore).
In test [5] the target is T2, rhIL-17A/F heterodimer (R&D Systems) (human, UniProt Q16552 20-155; Q96PD4 31-163, limits assumed).
T2 sequence (looked up) 1: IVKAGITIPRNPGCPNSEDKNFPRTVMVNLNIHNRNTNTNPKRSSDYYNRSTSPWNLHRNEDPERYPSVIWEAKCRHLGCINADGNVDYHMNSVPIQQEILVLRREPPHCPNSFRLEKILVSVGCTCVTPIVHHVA
T2 sequence (looked up) 2: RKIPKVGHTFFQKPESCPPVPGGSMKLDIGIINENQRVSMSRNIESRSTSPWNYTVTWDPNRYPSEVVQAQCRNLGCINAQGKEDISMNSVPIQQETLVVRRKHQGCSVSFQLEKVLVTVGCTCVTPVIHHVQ
The experiment in a line: cell-based or functional assay.

B1: mAb3077 (antibody, human IgG1, lambda, V domains shown)
VH: QVQLVQSGAEVKKPGSSVKVSCKASGGTFSSYAISWVRQAPGQGLEWMGSIIPWFGWTNYAQKFQGRVTITADESTSTAYMELSSLRSEDTAVYYCARDSEYYFDHWGQGTLVTVSS
VL: DIQMTQSPSSVSASVGDRVTITCRASQGISNWLNWYQQKPGKAPKLLIYAASSLQSGVPSRFSGSGSGTDFTLTISSLQPEDFATYYCQQYSDDPTFGQGTKVEIKG
notes: Framework-engineered mAb; also called engineered form of MOR7785
Consider B1, for which, in test [1], the “IL-6 production (NHDF), IC50” value amounted to 0.113 nM and the “IL-8 production (NHDF), IC50” value was determined as 0.374 nM. Besides, in test [2], the IC50 was found to be 0.054 nM.

B2: MORmAb7785 (antibody, V domains shown)
VH: B1 VH
VL: DIQMTQSPSSLSASVGDRVTITCRASQGISNWLNWYQQKPGKAPKLLIYAASSLQSGVPSRFSGSGSGTDFTLTISSLQPEDFAVYYCQQYSDDPTFGQGTKVEIK
Turning to B2, the concentration for half-maximal inhibition (IC50) in test [3] came to 0.27 nM. In other words, the sub-nanomolar range.

B3: mAb7024 (antibody, human IgG1, lambda, V domains shown)
VH: B1 VH with W57T
VL: B1 VL
notes: Framework-engineered mAb; also called engineered form of MOR8104
For B3, in test [1], the “IL-6 production (NHDF), IC50” value stood at 0.999 nM and the “IL-8 production (NHDF), IC50” value turned out to be 2.98 nM. For the same molecule, the IC50 in test [2] is 0.117 nM.

B4: MORmAb8105 (antibody, V domains shown)
VH: B1 VH with W57Y
VL: B2 VL
In test [3], B4 had an IC50 of 0.498 nM. That is a sub-nanomolar value.

B5: mAb624 (antibody, human IgG1, lambda, V domains shown)
VH: B1 VH with S50R, N59S
VL: B1 VL
notes: Framework-engineered mAb; also called engineered form of MOR7708
As to B5, the “IL-8 production (NHDF), IC50” value in test [1] turned out to be 0.192 nM. The molecule also yielded an IC50 in test [2] of 0.051 nM.

B6: MORmAb8104 (antibody, V domains shown)
VH: B1 VH with W57T
VL: B2 VL
For B6, in test [3], the half-inhibitory concentration (IC50) came to 0.306 nM.

B7: MORmAb7708 (antibody, V domains shown)
VH: B1 VH with S50R, N59S
VL: B2 VL
In turn, B7 registered an IC50 in test [3] of 0.289 nM. The IC50 values of the last two molecules are within 1.5-fold of each other.

B8: mAb4538 (antibody, human IgG1, lambda, V domains shown)
VH: QVQLQQSGPGLVKPSQTLSLTCAISGDSVSSSSAAWGWIRQSPSRGLEWLGRISYRSKWYNDYAVSVKSRITINPDTSKNQFSLQLNSVTPEDTAVYYCAREVDSMYYSYFDIWGQGTLVTVSS
VL: EIVLTQSPATLSLSPGERATLSCRASQNVWAFYLAWYQQKPGQAPRLLIYGASNRATGIPARFSGSGSGTDFTLTISSLEPEDFAVYYCQQYRSTLSLTFGQGTKVEIKG
notes: Framework-engineered mAb; also called engineered form of MOR7706
As for B8, in test [1], the “IL-6 production (NHDF), IC50” value is 0.847 nM and the “IL-8 production (NHDF), IC50” value worked out at 1.75 nM. In test [2], this molecule returned an IC50 of 0.636 nM.

B9: MORmAb7775 (antibody, V domains shown)
VH: B8 VH with S44G
VL: DIVLTQSPATLSLSPGERATLSCRASQNVWAFYLAWYQQKPGQAPRLLIYGASNRATGVPARFSGSGSGTDFTLTISSLEPEDFATYYCTQYYSSPSLTFGQGTKVEIK
The molecule B9 gave an IC50 in test [3] of 0.541 nM.

B10: mAb4168 (antibody, human IgG1, lambda, V domains shown)
VH: B8 VH with M106T
VL: B8 VL with Q90T, R93Y, T95S, L96P
notes: Framework-engineered mAb; also called engineered form of MOR8103
Consider B10, for which, in test [1], the “IL-6 production (NHDF), IC50” value turned out to be 2.17 nM and the “IL-8 production (NHDF), IC50” value came to 3.3 nM. The IC50 in test [2] is 0.764 nM.

B11: mAb732 (antibody, human IgG1, lambda, V domains shown)
VH: B8 VH
VL: B8 VL with Q90T, R93Y, T95S, L96P
notes: Framework-engineered mAb; also called engineered form of MOR7775
For the molecule B11, in test [1], the “IL-6 production (NHDF), IC50” value worked out at 2.02 nM and the “IL-8 production (NHDF), IC50” value was determined as 12.5 nM. Besides, the IC50 in test [2] is 0.463 nM.

B12: MORmAb7706 (antibody, V domains shown)
VH: B8 VH with S44G
VL: B9 VL with T90Q, Y93R, S95T, P96L
In turn, B12 came in with an IC50 in test [3] of 0.961 nM.

B13: MORmAb8102 (antibody, V domains shown)
VH: B8 VH with S44G, M106L
VL: B9 VL
B13: the IC50 in test [3] was 0.838 nM.

B14: MORmAb8103 (antibody, V domains shown)
VH: B8 VH with S44G, M106T
VL: B9 VL
Consider B14, for which the concentration for half-maximal inhibition (IC50) in test [3] was 0.491 nM.

B15: mAb3584 (antibody, human IgG1, lambda, V domains shown)
VH: B8 VH with M106I
VL: B8 VL
notes: Framework-engineered mAb; also called engineered form of MOR8299
As to B15, in test [1], the “IL-6 production (NHDF), IC50” value is 0.823 nM and the “IL-8 production (NHDF), IC50” value came to 1.25 nM. Further, the IC50 in test [2] was determined as 0.489 nM.

B16: MORmAb8101 (antibody, V domains shown)
VH: B8 VH with S44G, M106I
VL: B9 VL
As to B16, in test [3], the IC50 was determined as 0.845 nM.

B17: mAb7146 (antibody, human IgG1, lambda, V domains shown)
VH: QVQLLESGGGLVQPGGSLRLSCAASGFTFSSYAMSWVRQAPGKGLEWVSTISMTSGFTYYADSVKGRFTISRDNSKNTLYLQMNSLRAEDTAVYYCARQLTLDVWGQGTLVTVSS
VL: QSVLTQPPSVSVAPGQTARISCSGDNLGDKYANWYQQKPGQAPVLVIYDDIDRPSGIPERFSGSNSGNTATLTISGTQAEDEADYYCGSYDFFLGLIVFGGGTKLTVLG
notes: Framework-engineered mAb; also called engineered form of MOR8160
On to B17, for which, in test [1], the “IL-6 production (NHDF), IC50” value came out at 0.139 nM and the “IL-8 production (NHDF), IC50” value amounted to 0.14 nM. Moreover, the IC50 in test [2] is 0.067 nM. In test [4], this molecule came in with a Kd of 0.05 nM and a Stoichiometry of 2 dimers per anti-IL-17.

B18: MORmAb7700 (antibody, V domains shown)
VH: B17 VH with L5V, T101M
VL: DIELTQPPSVSVAPGQTARISCSGDNLGDKYANWYQQKPGQAPVLVIYDDIDRPSGIPERFSGSNSGNTATLTISGTQAEDEADYYCGSYDFFLGMIVFGGGTKLTVL
Consider B18, for which, in test [3], the IC50 was found to be 0.236 nM.

B19: MORmAb8097 (antibody, V domains shown)
VH: B17 VH with L5V, T101L
VL: B18 VL
In turn, B19 returned a concentration for half-maximal inhibition (IC50) in test [3] of 0.3 nM. The IC50 values of the last two molecules are within 1.5-fold of each other.

B20: MORmAb8096 (antibody, V domains shown)
VH: B17 VH with L5V, M53L, T101M
VL: B18 VL
B20 gave an IC50 in test [3] of 0.058 nM.

B21: MORmAb8143 (antibody, V domains shown)
VH: B17 VH with L5V, T101M
VL: B18 VL with M96Y
Regarding B21, the IC50 in test [3] is 0.252 nM. This IC50 is about 4.3-fold higher than that of the molecule before.

B22: MORmAb8098 (antibody, V domains shown)
VH: B17 VH with L5V
VL: B18 VL
Consider B22, for which the IC50 in test [3] was 0.289 nM. The IC50 values of the last two molecules are within 1.5-fold of each other.

B23: mAb5548 (antibody, human IgG1, lambda, V domains shown)
VH: B17 VH with M53L
VL: B17 VL
notes: Framework-engineered mAb
In test [4], B23 registered a Kd of 0.225 nM and a Stoichiometry of 1.9 dimers per anti-IL-17.

B24: MORmAb8095 (antibody, V domains shown)
VH: B17 VH with L5V, M53I, T101M
VL: B18 VL
As to B24, in test [3], the concentration for half-maximal inhibition (IC50) worked out at 0.198 nM.

B25: MORmAb8141 (antibody, V domains shown)
VH: B17 VH with L5V, T101M
VL: B18 VL with M96L
In turn, B25 displayed an IC50 in test [3] of 1.44 nM.

B26: MORmAb8142 (antibody, V domains shown)
VH: B17 VH with L5V, T101M
VL: B18 VL with M96T
B26 yielded an IC50 in test [3] of 0.139 nM.

B27: mAb6785 (antibody, human IgG1, lambda, V domains shown)
VH: B17 VH with M53L
VL: B17 VL with L96M
notes: Framework-engineered mAb; also called engineered form of MOR8302
Take B27: in test [1], the “IL-6 production (NHDF), IC50” value was 0.193 nM and the “IL-8 production (NHDF), IC50” value stood at 0.563 nM. Further, the half-inhibitory concentration (IC50) in test [2] came out at 0.076 nM. In test [4], this molecule yielded a dissociation constant Kd of 0.148 nM and a Stoichiometry of 2.2 dimers per anti-IL-17. For the same molecule, the “IL-17A/F heterodimer-induced IL-6 production by NHDF, EC50” value in test [5] turned out to be 2 nM.
